Laboratory results reported in patent US20200055896.

Tests used:
[1] = biological target: ANPFAP, internally-quenched FRET peptide substrate for FAP (Li et al. 2012)
[2] = biological target: T1, GP probe: fluorescence-quenched peptide of the region flanking the C-terminal human FGF21 cleavage site (VGPSQG)
T1 chain: VGPSQGK

[3] = biological target: EP probe: fluorescence-quenched peptide of the homologous region of murine FGF21

B1: Human prolyl oligopeptidase (PREP, 4308-SE) (protein)
chain: MLSLQYPDVYRDETAVQDYHGHKICDPYAWLEDPDSEQTKAFVEAQNKITVPFLEQCPIRGLYKERMTELYDYPKYSCHFKKGKRYFYFYNTGLQNQRVLYVQDSLEGEARVFLDPNILSDDGTVALRGYAFSEDGEYFAYGLSASGSDWVTIKFMKVDGAKELPDVLERVKFSCMAWTHDGKGMFYNSYPQQDGKSDGTETSTNLHQKLYYHVLGTDQSEDILCAEFPDEPKWMGGAELSDDGRYVLLSIREGCDPVNRLWYCDLQQESSGIAGILKWVKLIDNFEGEYDYVTNEGTVFTFKTNRQSPNYRVINIDFRDPEESKWKVLVPEHEKDVLEWIACVRSNFLVLCYLHDVKNILQLHDLTTGALLKTFPLDVGSIVGYSGQKKDTEIFYQFTSFLSPGIIYHCDLTKEELEPRVFREVTVKGIDASDYQTVQIFYPSKDGTKIPMFIVHKKGIKLDGSHPAFLYGYGGFNISITPNYSVSRLIFVRHMGGILAVANIRGGGEYGETWHKGGILANKQNCFDDFQCAAEYLIKEGYTSPKRLTINGGSNGGLLVAACANQRPDLFGCVIAQVGVMDMLKFHKYTIGHAWTTDYGCSDSKQHFEWLVKYSPLHNVKLPEADDIQYPSMLLLTADHDDRVVPLHSLKFIATLQYIVGRSRKQSNPLLIHVDTKAGHGAGKPTAKVIEEVSDMFAFIARCLNVDWIP
cleavage of quenched-FRET peptide, 10 nM enzyme [1]: both FAP and PREP efficiently cleave ANPFAP in vitro
cleavage of fluorescence-quenched peptide (FRET-quench assay), 1 nM enzyme [2]: both enzymes readily cleaved the GP peptide

B2: N-terminal octa-His-tagged mouse FAP protein containing the extracellular domain (residues L26-D761) (protein)
chain: LRPSRVYKPEGNTKRALTLKDILNGTFSYKTYFPNWISEQEYLHQSEDDNIVFYNIETRESYIILSNSTMKSVNATDYGLSPDRQFVYLESDYSKLWRYSYTATYYIYDLQNGEFVRGYELPRPIQYLCWSPVGSKLAYVYQNNIYLKQRPGDPPFQITYTGRENRIFNGIPDWVYEEEMLATKYALWWSPDGKFLAYVEFNDSDIPIIAYSYYGDGQYPRTINIPYPKAGAKNPVVRVFIVDTTYPHHVGPMEVPVPEMIASSDYYFSWLTWVSSERVCLQWLKRVQNVSVLSICDFREDWHAWECPKNQEHVEESRTGWAGGFFVSTPAFSQDATSYYKIFSDKDGYKHIHYIKDTVENAIQITSGKWEAIYIFRVTQDSLFYSSNEFEGYPGRRNIYRISIGNSPPSKKCVTCHLRKERCQYYTASFSYKAKYYALVCYGPGLPISTLHDGRTDQEIQVLEENKELENSLRNIQLPKVEIKKLKDGGLTFWYKMILPPQFDRSKKYPLLIQVYGGPCSQSVKSVFAVNWITYLASKEGIVIALVDGRGTAFQGDKFLHAVYRKLGVYEVEDQLTAVRKFIEMGFIDEERIAIWGWSYGGYVSSLALASGTGLFKCGIAVAPVSSWEYYASIYSERFMGLPTKDDNLEHYKNSTVMARAEYFRNVDYLLIHGTADDNVHFQNSAQIAKALVNAQVDFQAMWYSDQNHGISSGRSQNHLYTHMTHFLKQCFSLSD
cleavage of fluorescence-quenched peptide (FRET-quench assay) [3]: purified recombinant mouse FAP protein cleaved the GP but not GG or EP probes
catalytic efficiency (Michaelis-Menten kinetics) [2]: mouse FAP exhibited a lower catalytic efficiency than human FAP, mainly due to a reduced kcat
cleavage of fluorescence-quenched peptide (FRET-quench assay) [2]: purified recombinant mouse FAP protein cleaved the GP but not GG or EP probes

B3: FAP in mouse plasma (protein)
chain: IVLRPSRVYKPEGNTKRALTLKDILNGTFSYKTYFPNWISEQEYLHQSEDDNIVFYNIETRESYIILSNSTMKSVNATDYGLSPDRQFVYLESDYSKLWRYSYTATYYIYDLQNGEFVRGYELPRPIQYLCWSPVGSKLAYVYQNNIYLKQRPGDPPFQITYTGRENRIFNGIPDWVYEEEMLATKYALWWSPDGKFLAYVEFNDSDIPIIAYSYYGDGQYPRTINIPYPKAGAKNPVVRVFIVDTTYPHHVGPMEVPVPEMIASSDYYFSWLTWVSSERVCLQWLKRVQNVSVLSICDFREDWHAWECPKNQEHVEESRTGWAGGFFVSTPAFSQDATSYYKIFSDKDGYKHIHYIKDTVENAIQITSGKWEAIYIFRVTQDSLFYSSNEFEGYPGRRNIYRISIGNSPPSKKCVTCHLRKERCQYYTASFSYKAKYYALVCYGPGLPISTLHDGRTDQEIQVLEENKELENSLRNIQLPKVEIKKLKDGGLTFWYKMILPPQFDRSKKYPLLIQVYGGPCSQSVKSVFAVNWITYLASKEGIVIALVDGRGTAFQGDKFLHAVYRKLGVYEVEDQLTAVRKFIEMGFIDEERIAIWGWSYGGYVSSLALASGTGLFKCGIAVAPVSSWEYYASIYSERFMGLPTKDDNLEHYKNSTVMARAEYFRNVDYLLIHGTADDNVHFQNSAQIAKALVNAQVDFQAMWYSDQNHGISSGRSQNHLYTHMTHFLKQCFSLSD
cleavage of the GP probe in mouse plasma, with cpd60 and KYP-2047 [2]: FAP is the major enzyme responsible for the cleavage of the GP probe in plasma
